T1: LexA-ftz (UniProt P02835 1-410, limits assumed)
T1 construct: not shown: LexA, fusion partner
T1 sequence (looked up): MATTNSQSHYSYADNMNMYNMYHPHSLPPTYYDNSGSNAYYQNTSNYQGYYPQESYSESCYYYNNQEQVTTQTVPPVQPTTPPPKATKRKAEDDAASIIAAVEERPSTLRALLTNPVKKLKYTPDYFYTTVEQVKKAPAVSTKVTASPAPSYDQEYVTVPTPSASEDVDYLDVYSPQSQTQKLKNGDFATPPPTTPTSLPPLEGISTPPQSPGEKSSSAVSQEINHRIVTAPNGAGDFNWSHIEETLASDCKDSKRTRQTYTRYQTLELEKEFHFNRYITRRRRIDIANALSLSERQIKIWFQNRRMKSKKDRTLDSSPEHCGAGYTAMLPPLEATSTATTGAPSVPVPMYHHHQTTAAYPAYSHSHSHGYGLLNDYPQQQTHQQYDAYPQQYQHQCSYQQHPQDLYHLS

T2: LexA-hairy (UniProt P14003 1-337, limits assumed)
T2 construct: not shown: LexA, fusion partner
T2 sequence (looked up): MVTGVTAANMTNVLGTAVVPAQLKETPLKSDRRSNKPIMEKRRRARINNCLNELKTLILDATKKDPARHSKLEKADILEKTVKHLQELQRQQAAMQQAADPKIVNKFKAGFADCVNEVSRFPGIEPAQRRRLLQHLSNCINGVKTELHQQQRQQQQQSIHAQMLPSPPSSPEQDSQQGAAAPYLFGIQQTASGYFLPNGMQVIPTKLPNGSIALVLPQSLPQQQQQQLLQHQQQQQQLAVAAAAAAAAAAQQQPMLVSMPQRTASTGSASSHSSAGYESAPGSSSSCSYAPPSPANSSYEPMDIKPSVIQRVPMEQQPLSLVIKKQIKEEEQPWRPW

T3: LexA-daughterless (UniProt P11420 1-710, limits assumed)
T3 construct: not shown: LexA, fusion partner
T3 sequence (looked up): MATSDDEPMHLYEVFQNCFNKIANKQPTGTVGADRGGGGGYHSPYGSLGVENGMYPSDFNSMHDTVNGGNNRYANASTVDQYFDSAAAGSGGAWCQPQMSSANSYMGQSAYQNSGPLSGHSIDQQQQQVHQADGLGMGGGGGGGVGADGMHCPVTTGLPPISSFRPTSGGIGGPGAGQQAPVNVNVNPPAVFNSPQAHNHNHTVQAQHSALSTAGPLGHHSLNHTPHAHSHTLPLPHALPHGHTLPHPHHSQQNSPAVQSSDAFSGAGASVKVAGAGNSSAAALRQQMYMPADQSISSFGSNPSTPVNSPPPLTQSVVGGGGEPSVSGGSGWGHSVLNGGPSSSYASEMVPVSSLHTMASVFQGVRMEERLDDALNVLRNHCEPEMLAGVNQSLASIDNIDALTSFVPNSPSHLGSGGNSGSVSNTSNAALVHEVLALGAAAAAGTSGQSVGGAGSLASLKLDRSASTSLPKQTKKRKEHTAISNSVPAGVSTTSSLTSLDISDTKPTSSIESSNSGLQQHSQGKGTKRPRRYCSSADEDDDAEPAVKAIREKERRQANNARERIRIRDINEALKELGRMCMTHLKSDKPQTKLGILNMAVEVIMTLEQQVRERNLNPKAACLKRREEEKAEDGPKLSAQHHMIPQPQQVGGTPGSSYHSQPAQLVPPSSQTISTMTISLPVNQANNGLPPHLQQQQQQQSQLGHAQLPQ

T4: LexA-CLN3 (UniProt P13365 1-580, limits assumed)
T4 construct: not shown: LexA, fusion partner
T4 sequence (looked up): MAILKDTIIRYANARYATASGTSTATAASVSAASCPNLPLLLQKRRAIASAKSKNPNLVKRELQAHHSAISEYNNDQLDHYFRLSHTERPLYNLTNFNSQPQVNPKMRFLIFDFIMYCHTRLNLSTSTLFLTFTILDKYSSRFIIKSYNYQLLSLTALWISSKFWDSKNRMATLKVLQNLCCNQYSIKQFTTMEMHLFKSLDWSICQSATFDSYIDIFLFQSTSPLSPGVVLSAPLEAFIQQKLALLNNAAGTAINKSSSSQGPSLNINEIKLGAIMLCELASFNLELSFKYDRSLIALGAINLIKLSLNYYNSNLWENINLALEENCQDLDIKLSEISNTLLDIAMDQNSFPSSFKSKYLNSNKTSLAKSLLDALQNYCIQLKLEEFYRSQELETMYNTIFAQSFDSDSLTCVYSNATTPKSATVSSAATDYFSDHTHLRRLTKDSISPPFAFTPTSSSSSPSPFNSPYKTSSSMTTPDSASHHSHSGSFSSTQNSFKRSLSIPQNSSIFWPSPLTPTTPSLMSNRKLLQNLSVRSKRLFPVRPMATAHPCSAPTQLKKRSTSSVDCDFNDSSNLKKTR

B1: B42-Tvl-1 fusion (Tvl-1 a.a. 81-269 fused to the activation domain B42) (other, not shown: large carriers)
chain: VSALPATLDSLSIHQLAAQGELSQLKDHLRKGACPACTCLSGNNLINKPDERGFTPLIWASAFGEIETVRFLLDWGADPHILAKERESALSLASMGGYTDIVRLLLDRDVDINIYDWNGGTPLLYAVRGNHVKCVEALLARGADLTTEADSGYTPMDLAVALGYRKVQQVMESHILRLFQSTLGPVDPE
notes: Yeast two-hybrid prey; also called acid blob-Tvl-1
B2: LexA-bicoid (other, UniProt P09081 2-160, looked up)
chain: AQPPPDQNFYHHPLPHTHTHPHPHSHPHPHSHPHPHHQHPQLQLPPQFRNPFDLLFDERTGAINYNYIRPYLPNQMPKPDVFPSEELPDSLVMRRPRRTRTTFTSSQIAELEQHFLQGRYLTAPRLADLSAKLALGTAQVKIWFKNRRRRHKIQSDQHK
notes: not shown: LexA, fusion partner
B3: Tvl-1 N-terminal portion (a.a. 1-96) (other)
chain: MEPTQVAENLVPNQQPPVPDLEDPEDTRDESPENSDTVVLSLFPCTPDAVNPEADASASSLQGSFLKHSTTLTNRQRGNEVSALPATLDSLSIHQL

Legend:
LexA-ftz = biological target: T1, LexA-ftz; assay: yeast interaction mating, B42 Tvl-1 against LexA fusion (data not shown)
LexA-hairy = biological target: T2, LexA-hairy; assay: as above
LexA-DMcdc2 = biological target: T5, LexA-DMcdc2 (UniProt P23572 1-297); assay: as above
T5 construct: not shown: LexA, fusion partner
T5 sequence (P23572 whole entry, the tested form may be a part): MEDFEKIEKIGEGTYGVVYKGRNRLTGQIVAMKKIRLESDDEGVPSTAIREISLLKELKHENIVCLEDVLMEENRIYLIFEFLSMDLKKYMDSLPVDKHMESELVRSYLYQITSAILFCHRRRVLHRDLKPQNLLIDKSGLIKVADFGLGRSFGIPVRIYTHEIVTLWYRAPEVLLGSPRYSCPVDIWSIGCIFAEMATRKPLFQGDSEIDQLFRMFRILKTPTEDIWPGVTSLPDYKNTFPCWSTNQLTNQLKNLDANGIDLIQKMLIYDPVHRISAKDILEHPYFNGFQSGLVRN

LexA-SSN6 = biological target: T6, LexA-SSN6 (UniProt P14922 1-966, limits assumed); assay: as above
T6 construct: not shown: LexA, fusion partner
T6 sequence (P14922 whole entry, the tested form may be a part): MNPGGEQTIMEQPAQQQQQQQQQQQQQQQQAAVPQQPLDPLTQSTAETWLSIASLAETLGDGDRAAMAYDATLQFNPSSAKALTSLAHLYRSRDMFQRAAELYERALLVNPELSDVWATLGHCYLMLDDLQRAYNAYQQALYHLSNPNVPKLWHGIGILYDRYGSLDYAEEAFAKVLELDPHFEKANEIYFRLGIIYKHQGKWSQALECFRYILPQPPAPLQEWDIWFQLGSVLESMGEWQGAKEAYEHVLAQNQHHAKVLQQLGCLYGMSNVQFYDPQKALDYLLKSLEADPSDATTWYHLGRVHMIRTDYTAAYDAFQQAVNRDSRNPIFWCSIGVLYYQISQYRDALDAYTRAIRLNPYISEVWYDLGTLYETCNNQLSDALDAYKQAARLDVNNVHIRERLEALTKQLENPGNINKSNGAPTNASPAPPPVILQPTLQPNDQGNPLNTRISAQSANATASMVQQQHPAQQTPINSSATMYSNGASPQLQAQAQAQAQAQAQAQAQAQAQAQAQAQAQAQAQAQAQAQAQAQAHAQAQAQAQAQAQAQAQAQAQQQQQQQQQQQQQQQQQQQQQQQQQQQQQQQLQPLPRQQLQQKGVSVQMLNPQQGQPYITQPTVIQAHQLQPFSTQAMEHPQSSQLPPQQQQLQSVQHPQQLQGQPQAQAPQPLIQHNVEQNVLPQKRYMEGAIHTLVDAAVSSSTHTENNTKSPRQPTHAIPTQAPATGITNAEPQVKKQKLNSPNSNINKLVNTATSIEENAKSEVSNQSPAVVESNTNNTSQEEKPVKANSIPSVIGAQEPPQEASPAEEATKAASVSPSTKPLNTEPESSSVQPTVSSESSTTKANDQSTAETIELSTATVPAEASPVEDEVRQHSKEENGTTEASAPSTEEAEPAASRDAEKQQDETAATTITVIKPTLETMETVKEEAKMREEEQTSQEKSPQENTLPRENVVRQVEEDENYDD

LexA-daughterless = biological target: T3, LexA-daughterless; assay: as above
LexA-CLN3 = biological target: T4, LexA-CLN3; assay: as above
[1] = biological target: B1; assay: as above
LexA-Raf-1 = biological target: T7, LexA-Raf-1 (human, UniProt P0A7C2 1-202; P04049 1-648, limits assumed); assay: yeast two-hybrid (data not shown)
T7 construct: Yeast two-hybrid bait; also called LexA fusion of Raf-1 (#1)

B1: no binding (LexA-ftz); no binding (LexA-hairy); no binding (LexA-DMcdc2). B1: no binding (LexA-SSN6); no binding (LexA-daughterless); no binding (LexA-CLN3).

B2: no binding [1].

B3: no binding (LexA-Raf-1).
